PMC5309844

Molecular target: full-length recombinant human NR1 protein (human) (UniProt Q05586)

Chain of recombinant human PDI (P07237 18-508): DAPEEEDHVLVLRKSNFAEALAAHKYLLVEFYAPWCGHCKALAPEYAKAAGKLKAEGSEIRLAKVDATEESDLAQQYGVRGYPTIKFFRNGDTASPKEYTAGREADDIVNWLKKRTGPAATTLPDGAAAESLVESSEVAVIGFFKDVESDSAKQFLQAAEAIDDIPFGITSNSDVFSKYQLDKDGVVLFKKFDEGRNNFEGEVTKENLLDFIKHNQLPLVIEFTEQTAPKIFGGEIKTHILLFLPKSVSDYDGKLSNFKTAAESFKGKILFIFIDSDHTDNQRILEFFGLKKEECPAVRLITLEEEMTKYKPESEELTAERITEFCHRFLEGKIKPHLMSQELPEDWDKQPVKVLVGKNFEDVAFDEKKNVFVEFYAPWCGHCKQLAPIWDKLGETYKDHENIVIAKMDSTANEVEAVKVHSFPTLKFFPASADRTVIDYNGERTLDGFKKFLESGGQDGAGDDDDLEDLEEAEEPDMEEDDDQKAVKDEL

recombinant human PDI (from UniProt P07237 18-508) (enzyme)
amount of thiols on recombinant NR1 protein after 2 h with recombinant PDI at room temperature (in vitro thiol reductase assay, modified biotin switch and Western blot), against vehicle: 3.2 fold
